Tests used:
Type in all cases: biochemical
[1] = Screening of AS single mutant library for glucosylation of α-L-Rhap-OMe (HPLC); conditions: FIG. 6
Protocol: The protocol was established to enable the rapid identification of clones able to glucosylate α-L-Rhap-OMe (formula II). To obtain higher amounts of enzymes and facilitate detection of glucosylated compounds upon HPLC screening, mutants were produced in 96-DeepWell Format plates. Storage microplates containing monomutants were thawed and replicated to inoculate a starter culture in 96-well microplates containing, in each well, 150 μL LB medium supplemented with ampicillin (100 μg/mL). After growth for 24 h at 30° C. under agitation (200 rpm), plates were duplicated into 96-Deep Well plates containing, in each well, 1.1 mL LB medium supplemented with ampicillin (100 μg/mL) and IPTG (1 mM) to induce GST-AS expression. Cultures were then grown for 24 h at 30° C. under agitation (200 rpm). […]
Efficiency of the glucosylation reaction was evaluated by HPLC analysis of the acceptor reaction product synthesized when using α-L-Rhap-OMe as acceptor using a Dionex P 680 series pump, a Shodex RI 101 series refractometer, a Dionex UVD 340 UV/Vis detector and an autosampler HTC PAL. […]
For each of the 7 selected positions, 19 single mutants were generated (corresponding to each possible amino acid change). […] Both sucrose consumption and disaccharide formation were determined in order to calculate the glucosylation rate defined as the molar ratio of monoglucosylated acceptor versus/sucrose consumed.

[2] = Comparison of products synthesized by wild type and AS variant I228Y (HPAEC/HPLC); conditions: for recognition of α-L-RhapO-Me as an acceptor: purified enzyme, HPLC, FIG. 7A
Protocol: All assays were performed at 30° C. in 50 mM Tris buffer, pH=7.0.
Comparison of products synthesized by wild type and AS variant. Reactions were performed in the presence of 146 mM sucrose alone or supplemented with 146 mM acceptor. The purified wild-type or mutated GST/AS were employed at 0.5 U/mL. The reactions were stopped by heating at 95° C. for […]. The final mixture was centrifuged at 18 000 g for 5 min.
Soluble and insoluble oligosaccharides produced during the reaction were identified by HPAEC using a Dionex Carbo-Pack PA100 column at 30° C. Before analysis, the insoluble fraction was solubilised in KOH at a final total sugar concentration of 10 g/kg. Mobile phase (150 mM NaOH) was set at 1 mL/min flow rate with a sodium acetate gradient (going from 6 to 500 mM within 120 min). Detection was performed using a Dionex ED40 module with a gold working electrode and an Ag/AgCl pH reference. Note that α-L-Rhap-OMe (acceptor) and its derivatives are not oxidable products and thus are not detectable by HPAEC. Sucrose, glucose, fructose, α-L-Rhap-OMe (acceptor) and its derivatives (glucosylation products) were quantified by HPLC, as previously described.

[3] = Determination of kinetic parameters (catalytic efficiency) of ASNPwt and I228Y; conditions: for activation in the presence of α-L-RhapO-Me: increasing concentration of acceptor, FIG. 7D(b), 7E
Protocol: Catalytic efficiency (Eff=kcat/KM) of ASNPwt and I228Y variant were determined with both sucrose (D=Donor) and methyl α-L-rhamnopyranoside (A=Acceptor) as variable substrates. For the determination of the catalytic efficiency for D, A was held constant at 250 mM and D was varied between 0 and 600 mM. For the determination of the catalytic efficiency for A, D was held constant at 250 mM and A was varied between 0 and 500 mM. Experiments were performed until A and D solubility limits were reached. For each experiment, two distinct reaction velocities were determined: (1) the donor consumption determined by the release of fructose (called Vi (F)), corresponding to the overall kinetics of the different reactions described in FIG. 3 and (2) the acceptor glucosylation determined by the formation of α-D-Glcp-(1→3)-α-L-RhapOMe (called Vi(Dp2)), corresponding to the kinetics of the reaction of interest.
Initial velocities were fitted to the Michaelis-Menten equation using Sigma-Plot. As saturation was not achieved with the mutant, efficiency was calculated by linear regression analysis of the velocity versus substrate concentration plot. Aliquots (200 μL) were removed between 0 and 60 min (at which time product formation was still linear with respect to time), heated at 95° C. for 5 min and centrifuged at 18 000 g for 5 min. The final mixtures were filtered on a 0.22 μm membrane and analyzed using HPLC material previously described. HPLC analyses were performed using two columns: 1) a Biorad HPLC Carbohydrate Analysis column (HPX-87H column (300×7.8 mm)) maintained at 30° C., using ultra-pure water as eluent with a flow rate of 0.6 mL/min; 2) a reversed phase analytical column (Synergi C18RPFusion, 4 μm, 30×4.6 mm) kept at room temperature, with 1 ml/min of ultra-pure water as eluent. HPX-87H column was used to determine the released fructose by RI detection. C18RPfusion column was used to detect the formation of α-D-Glcp-(1→3)-α-L-RhapOMe.

[4] = Enzymatic glucosylation of L-Rhap by 1G5A mutants; conditions: sucrose donor and L-Rhap acceptor 1:1, 146 mM
Protocol: (§1) The enzymatic reaction was carried out using sucrose as donor and rhamnose derivative as acceptor in a 1:1 ratio (146 mM for L-Rhap, 50 mM for α-L-Rhap-OAll).
(§2) Efficiency of the glucosylation reaction was evaluated by HPLC analysis of the acceptor reaction product synthesized using a reversed phase analytical column (Synergi C18RPFusion, 4 μm, 30×4.6 mm) (when testing L-Rhap) and a Biorad HPLC Carbohydrate Analysis column (HPX-87K column (300×7.8 mm)) when testing α-L-Rhap-OAll. (cf. Example 1/Materials and Methods/Screening of mutant library)

[5] = Enzymatic glucosylation of α-L-Rhap-OAll by 1G5A mutants; conditions: sucrose donor and α-L-Rhap-OAll acceptor 1:1, 50 mM
Protocol: as §1, §2

[6] = 146 mM sucrose supplemented with 146 mM acceptor

Molecule	recognition of α-L-Rhap-OMe as acceptor / ability to form the desired disaccharide [1]	effect of the presence of α-L-RhapO-Me in the reaction medium on the product profile [2, 6]	recognition of α-L-RhapO-Me as an acceptor [2, 6]	activation in the presence of α-L-RhapO-Me [3]	catalytic efficiency ([3]; sucrose constant 250 mM, varied acceptor concentration)	Vi(Dp2) (acceptor glucosylation velocity) ([3]; sucrose constant 250 mM, varied acceptor concentration, FIG. 7E)	glucosylation of L-rhamnose with α-(1→3) linkage [4]	ability to glucosylate α-L-Rhap-OAll [5]	major reaction occurring ([2]; sole presence of sucrose)	highest Dp observed (maltooligosaccharide chains) ([2]; sole presence of sucrose, 146 mM, FIG. 7B)
wild type AS: Wild type glycoside hydrolase: amylosucrase (ASNPwt) 1G5A of sequence SEQ ID NO: 13, from Neisseria polysaccharea (protein, listed as Neisseria polysaccharea) SPNSQYLKTRILDIYTPEQRAGIEKSEDWRQFSRRMDTHFPKLMNELDSVYGNNEALLPMLEMLLAQAWQSYSQRNSSLKDIDIARENNPDWILSNKQVGGVCYVDLFAGDLKGLKDKIPYFQELGLTYLHLMPLFKCPEGKSDGGYAVSSYRDVNPALGTIGDLREVIAALHEAGISAVVDFIFNHTSNEHEWAQRCAAGDPLFDNFYYIFPDRRMPDQYDRTLREIFPDQHPGGFSQLEDGRWVWTTFNSFQWDLNYSNPWVFRAMAGEMLFLANLGVDILRMDAVAFIWKQMGTSCENLPQAHALIRAFNAVMRIAAPAVFFKSEAIVHPDQVVQYIGQDECQIGYNPLQMALLWNTLATREVNLLHQALTYRHNLPEHTAWVNYVRSHDDIGWTFADEDAAYLGISGYDHRQFLNRFFVNRFDGSFARGVPFQYNPSTGDCRVSGTAAALVGLAQDDPHAVDRIKLLYSIALSTGGLPLIYLGDEVGTLNDDDWSQDSNKSDDSRWAHRPRYNEALYAQRNDPSTAAGQIYQDLRHMIAVRQSNPRFDGGRLVTFNTNNKHIIGYIRNNALLAFGNFSEYPQTVTAHTLQAMPFKAHDLIGGKTVSLNQDLTLQPYQVMWLEIA	does not recognize the α-L-RhapO-Me as an acceptor	does not affect the product profile	does not recognize at all α-L-RhapO-Me as an acceptor	no activation	null catalytic efficiency	0	lacks this newly described specific activity	lacks this newly described specific activity	–	–
I228Y: 1G5A (N. polysaccharea amylosucrase, SEQ ID NO: 13) single mutant, isoleucine 228 replaced by tyrosine (protein, listed as Neisseria polysaccharea) SPNSQYLKTRILDIYTPEQRAGIEKSEDWRQFSRRMDTHFPKLMNELDSVYGNNEALLPMLEMLLAQAWQSYSQRNSSLKDIDIARENNPDWILSNKQVGGVCYVDLFAGDLKGLKDKIPYFQELGLTYLHLMPLFKCPEGKSDGGYAVSSYRDVNPALGTIGDLREVIAALHEAGISAVVDFIFNHTSNEHEWAQRCAAGDPLFDNFYYIFPDRRMPDQYDRTLREYFPDQHPGGFSQLEDGRWVWTTFNSFQWDLNYSNPWVFRAMAGEMLFLANLGVDILRMDAVAFIWKQMGTSCENLPQAHALIRAFNAVMRIAAPAVFFKSEAIVHPDQVVQYIGQDECQIGYNPLQMALLWNTLATREVNLLHQALTYRHNLPEHTAWVNYVRSHDDIGWTFADEDAAYLGISGYDHRQFLNRFFVNRFDGSFARGVPFQYNPSTGDCRVSGTAAALVGLAQDDPHAVDRIKLLYSIALSTGGLPLIYLGDEVGTLNDDDWSQDSNKSDDSRWAHRPRYNEALYAQRNDPSTAAGQIYQDLRHMIAVRQSNPRFDGGRLVTFNTNNKHIIGYIRNNALLAFGNFSEYPQTVTAHTLQAMPFKAHDLIGGKTVSLNQDLTLQPYQVMWLEIA	–	–	recognizes α-L-RhapO-Me as an acceptor to form in majority a Dp2	clear activation	–	–	observed for all mutants except I228Y	–	Hydrolysis	5
